Measured values as given in doi:10.1101/2025.07.29.667540.

How the values were obtained:
[1] = target: CyPet-NS1 (influenza A virus) (UniProt P03496); experiment: FRET or BRET
CyPet-Ubc9 = CyPet-Ubc9 (UniProt P63279); experiment: FRET or BRET
Chain of UniProt P63279 (P63279 whole entry): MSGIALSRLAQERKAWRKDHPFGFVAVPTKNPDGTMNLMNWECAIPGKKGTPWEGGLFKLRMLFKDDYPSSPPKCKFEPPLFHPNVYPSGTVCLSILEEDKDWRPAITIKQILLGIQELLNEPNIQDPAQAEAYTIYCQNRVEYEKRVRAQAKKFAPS

Chain of UniProt P03496 (P03496 whole entry): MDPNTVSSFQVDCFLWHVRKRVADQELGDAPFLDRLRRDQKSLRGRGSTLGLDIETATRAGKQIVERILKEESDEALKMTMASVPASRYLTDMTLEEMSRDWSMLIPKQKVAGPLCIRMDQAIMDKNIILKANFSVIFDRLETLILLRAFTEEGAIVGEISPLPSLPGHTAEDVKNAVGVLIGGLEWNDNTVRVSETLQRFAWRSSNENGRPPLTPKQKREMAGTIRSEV

Substance | Kd [1] | Kd (CyPet-Ubc9)
YPet-PIAS1 (from UniProt O75925 1-651) (enzyme) | 2.96 µM | 
YPet-NS1 (from UniProt P03496 1-230) (natural protein) |  | 4.84 µM
